B1: UGI: uracil DNA glycosylase inhibitor fused to the HACE editor (protein, UniProt P14739 1-84, looked up)
Uracil-DNA glycosylase …: MTNLSDIIEKETGKQLVIQESILMLPEEVEEVIGNKPESDILVHTAYDESTDENVMLLTSDAPEYKPWALVIQDSNGENKIKML
modifications: fused to HACE editor
B2: UvrD: E. coli helicase (protein, UniProt P03018 1-720, looked up)
DNA helicase II: MDVSYLLDSLNDKQREAVAAPRSNLLVLAGAGSGKTRVLVHRIAWLMSVENCSPYSIMAVTFTNKAAAEMRHRIGQLMGTSQGGMWVGTFHGLAHRLLRAHHMDANLPQDFQILDSEDQLRLLKRLIKAMNLDEKQWPPRQAMWYINSQKDEGLRPHHIQSYGNPVEQTWQKVYQAYQEACDRAGLVDFAELLLRAHELWLNKPHILQHYRERFTNILVDEFQDTNNIQYAWIRLLAGDTGKVMIVGDDDQSIYGWRGAQVENIQRFLNDFPGAETIRLEQNYRSTSNILSAANALIENNNGRLGKKLWTDGADGEPISLYCAFNELDEARFVVNRIKTWQDNGGALAECAILYRSNAQSRVLEEALLQASMPYRIYGGMRFFERQEIKDALSYLRLIANRNDDAAFERVVNTPTRGIGDRTLDVVRQTSRDRQLTLWQACRELLQEKALAGRAASALQRFMELIDALAQETADMPLHVQTDRVIKDSGLRTMYEQEKGEKGQTRIENLEELVTATRQFSYNEEDEDLMPLQAFLSHAALEAGEGQADTWQDAVQLMTLHSAKGLEFPQVFIVGMEEGMFPSQMSLDEGGRLEEERRLAYVGVTRAMQKLTLTYAETRRLYGKEVYHRPSRFIGELPEECVEEVRLRATVSRPVSHQRMGTPMVENDSGYKLGQRVRHAKFGEGTIVNMEGSGEHSRLQVAFQGQGIKWLVAAYARLESV
B3: Rep: helicase with short-range processivity (protein, UniProt P09980 1-673, looked up)
ATP-dependent DNA helicase Rep: MRLNPGQQQAVEFVTGPCLVLAGAGSGKTRVITNKIAHLIRGCGYQARHIAAVTFTNKAAREMKERVGQTLGRKEARGLMISTFHTLGLDIIKREYAALGMKANFSLFDDTDQLALLKELTEGLIEDDKVLLQQLISTISNWKNDLKTPSQAAASAIGERDRIFAHCYGLYDAHLKACNVLDFDDLILLPTLLLQRNEEVRKRWQNKIRYLLVDEYQDTNTSQYELVKLLVGSRARFTVVGDDDQSIYSWRGARPQNLVLLSQDFPALKVIKLEQNYRSSGRILKAANILIANNPHVFEKRLFSELGYGAELKVLSANNEEHEAERVTGELIAHHFVNKTQYKDYAILYRGNHQSRVFEKFLMQNRIPYKISGGTSFFSRPEIKDLLAYLRVLTNPDDDSAFLRIVNTPKREIGPATLKKLGEWAMTRNKSMFTASFDMGLSQTLSGRGYEALTRFTHWLAEIQRLAEREPIAAVRDLIHGMDYESWLYETSPSPKAAEMRMKNVNQLFSWMTEMLEGSELDEPMTLTQVVTRFTLRDMMERGESEEELDQVQLMTLHASKGLEFPYVYMVGMEEGFLPHQSSIDEDNIDEERRLAYVGITRAQKELTFTLCKERRQYGELVRPEPSRFLLELPQDDLIWEQERKVVSAEERMQKGQSHLANLKAMMAAKRGK
B4: TraI: E. coli helicase (protein)
chain: MAKIHMVLQGKGGVGKSAIAAIIAQYKMDKGQTPLCIDTDPVNATFEGYKALNVRRLNIMAGDEINSRNFDTLVELIAPTKDDVVIDNGASSFVPLSHYLISNQVPALLQEMGHELVIHTVVTGGQALLDTVSGFAQLASQFPAEALFVVWLNPYWGPIEHEGKSFEQMKAYTANKARVSSIIQIPALKEETYGRDFSDMLQERLTFDQALADESLTIMTRQRLKIVRRGLFEQLDAAAVL
B5: Sgs1: helicase with short-range processivity (protein, UniProt P35187 1-1447, looked up)
ATP-dependent helicase SGS1: MVTKPSHNLRREHKWLKETATLQEDKDFVFQAIQKHIANKRPKTNSPPTTPSKDECGPGTTNFITSIPASGPTNTATKQHEVMQTLSNDTEWLSYTATSNQYADVPMVDIPASTSVVSNPRTPNGSKTHNFNTFRPHMASSLVENDSSRNLGSRNNNKSVIDNSSIGKQLENDIKLEVIRLQGSLIMALKEQSKLLLQKCSIIESTSLSEDAKRLQLSRDIRPQLSNMSIRIDSLEKEIIKAKKDGMSKDQSKGRSQVSSQDDNIISSILPSPLEYNTSSRNSNLTSTTATTVTKALAITGAKQNITNNTGKNSNNDSNNDDLIQVLDDEDDIDCDPPVILKEGAPHSPAFPHLHMTSEEQDELTRRRNMRSREPVNYRIPDRDDPFDYVMGKSLRDDYPDVEREEDELTMEAEDDAHSSYMTTRDEEKEENELLNQSDFDFVVNDDLDPTQDTDYHDNMDVSANIQESSQEGDTRSTITLSQNKNVQVILSSPTAQSVPSNGQNQIGVEHIDLLEDDLEKDAILDDSMSFSFGRQHMPMSHSDLELIDSEKENEDFEEDNNNNGIEYLSDSDLERFDEERENRTQVADIQELDNDLKIITERKLTGDNEHPPPSWSPKIKREKSSVSQKDEEDDFDDDFSLSDIVSKSNLSSKTNGPTYPWSDEVLYRLHEVFKLPGFRPNQLEAVNATLQGKDVFVLMPTGGGKSLCYQLPAVVKSGKTHGTTIVISPLISLMQDQVEHLLNKNIKASMFSSRGTAEQRRQTFNLFINGLLDLVYISPEMISASEQCKRAISRLYADGKLARIVVDEAHCVSNWGHDFRPDYKELKFFKREYPDIPMIALTATASEQVRMDIIHNLELKEPVFLKQSFNRTNLYYEVNKKTKNTIFEICDAVKSRFKNQTGIIYCHSKKSCEQTSAQMQRNGIKCAYYHAGMEPDERLSVQKAWQADEIQVICATVAFGMGIDKPDVRFVYHFTVPRTLEGYYQETGRAGRDGNYSYCITYFSFRDIRTMQTMIQKDKNLDRENKEKHLNKLQQVMAYCDNVTDCRRKLVLSYFNEDFDSKLCHKNCDNCRNSANVINEERDVTEPAKKIVKLVESIQNERVTIIYCQDVFKGSRSSKIVQANHDTLEEHGIGKSMQKSEIERIFFHLITIRVLQEYSIMNNSGFASSYVKVGPNAKKLLTGKMEIKMQFTISAPNSRPSTSSSFQANEDNIPVIAQKSTTIGGNVAANPPRFISAKEHLRSYTYGGSTMGSSHPITLKNTSDLRSTQELNNLRMTYERLRELSLNLGNRMVPPVGNFMPDSILKKMAAILPMNDSAFATLGTVEDKYRRRFKYFKATIADLSKKRSSEDHEKYDTILNDEFVNRAAASSNGIAQSTGTKSKFFGANLNEAKENEQIINQIRQSQLPKNTTSSKSGTRSISKSSKKSANGRRGFRNYRGHYRGRK

Columns and labels:
HEK3 locus = test: HACE editing assay at the HEK3 locus, amplicon sequencing; format: cell-based, human; conditions: HEK293FT cells, HEs with and without UGI fusion
Description: An example HACE Editor (HE) protein was constructed by fusing a hyperactive mutant of activation-induced cytidine deaminase (AID*Δ) with a Geobacillus stearothermophilus PcrA helicase that was previously optimized for processivity (PcrA M6). […] After the nCas9 creates a nick, the HE may load at the nick, start unwinding the DNA, and generate random mutations in the process.
Separate plasmids expressing HE, nCas9, and a sgRNA targeting the HEK3 locus were transfected into HEK293FT cells. Cells were collected 72 hours after transfection, and editing rates were evaluated by amplicon sequencing. […] A strand bias with G>A substitutions occurring at a higher rate than C>T substitutions was detected, which likely reflects preferential repair of mismatches on the nicked strand. […]
For short amplicon (˜300 bp) sequencing for HEK293T and A375 cells, the target region was amplified from genomic DNA samples using Phusion U Hot Start PCR master mix (ThermoFisher Scientific, F562) in a 20 μL reaction. […] Amplicons were pooled and prepared for sequencing on a NextSeq (Illumina) with paired-end reads (read1, 160 bp; index1, 8 bp; index2, 8 bp; read2, 160 bp). Reads were demultiplexed and analyzed with appropriate pipelines. […]
Raw fastq reads obtained from sequencing were quality trimmed using BBduk(1) (BBMap v38.93) with the options “qtrim=r1 trimq=28 maq=25”. […]

double-stranded DNA = conditions: average base pairs unwound in a single binding event; cited from earlier work

| Molecule | effect of UGI fusion on editing levels for AID (HEK3 locus) | processivity range (double-stranded DNA) |
| --- | --- | --- |
| B1 | significantly elevated the editing levels | – |
| B2 | – | 30-40 base pairs |
| B3 | – | 30-50 base pairs |
| B4 | – | at least 850 base pairs |
| B5 | – | about 100 base pairs |

From US20250346885A1, “SYSTEMS AND METHODS FOR TARGETED CONTINUOUS GENOME MUTAGENESIS” (The Broad Institute, Inc., priority 2023, published 2025)
